Results on one substance are retold here after publication PMC8391968.

This assay addresses transcriptional enhancer associated domain (TEAD) transcription factor (human (endogenous in A375)) (UniProt P28347).
Sequence of UniProt P28347 (P28347 whole entry, the tested form may be a part): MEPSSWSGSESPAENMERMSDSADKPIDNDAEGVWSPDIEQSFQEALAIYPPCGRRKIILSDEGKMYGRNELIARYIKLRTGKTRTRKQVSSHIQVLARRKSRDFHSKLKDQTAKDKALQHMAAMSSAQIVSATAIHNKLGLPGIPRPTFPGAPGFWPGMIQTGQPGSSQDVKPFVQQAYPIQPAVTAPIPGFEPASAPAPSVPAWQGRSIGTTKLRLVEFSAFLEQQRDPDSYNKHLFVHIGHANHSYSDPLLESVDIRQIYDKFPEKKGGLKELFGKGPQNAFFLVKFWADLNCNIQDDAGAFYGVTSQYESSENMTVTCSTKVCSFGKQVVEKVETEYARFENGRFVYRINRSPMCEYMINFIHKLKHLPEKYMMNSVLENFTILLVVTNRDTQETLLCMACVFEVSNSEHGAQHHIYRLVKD

“yes-associated protein (YAP) (from UniProt P46937 1-504) (natural protein)”: the TEAD luciferase reporter (8xGTIIC) in A375 TEAD luciferase-stable melanoma cells, decrease of luciferase expression with the small molecule BY03 at 10 nM to 10 μM was determined as 75% and the TEAD-dependent luciferase reporter (8xGTIIC) in HEK293T cells with ectopic expression of YAP-S127A, decrease of luciferase expression with the small molecule BY03 at 20 μM amounted to 68%.
